Laboratory results reported in the nanobody polyreactivity screen of Harvey et al. (2022).

Test: yeast display, Sf9 membrane polyspecificity reagent, FACS + sequencing; frameworks hold sequencing errors
Summary of the method: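 Sorting gates, low and high (top ~1%), were placed on anti-HA fluorescence to track expression and on streptavidin fluorescence to track reagent binding. A clone's polyreactivity label is taken from the gate it came out of. The reagent was 10% biotinylated, detergent-solubilized Sf9 membrane, applied for 1 hour at 4 °C to galactose-induced yeast display cells.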

For “QVQLVESGGGLVQAGGSLRLSCAASGRIFLTYAMGWYRQAPGKERELVAAISTSGTRTYYADSVKGRFTISRDNAKNTVYLQMNSLKPEDTAVYYCAREKYNYRTYEYWGQGTQVTVSS”, the “polyreactivity (PSR sort gate)” value was “high polyreactivity”.
In the case of “QVQLVESGGGLVQAGGSLRLSCAASGFTFSHNAMGWYRQAPGKERELVAAISGSGGRTYYADSVKGRFTISRDNAKNTVYLQMNSLKPEDTAVYYCNAGRWWRRGYGYWGQGTQVTVSS”, the “polyreactivity (PSR sort gate)” value is reported as “high polyreactivity”.
In the case of “QVQLVESGGGLVQAGGSLRLSCAASGRIFYSYAMGWYRQAPGKERELVAAISSAGSTYYADSVKGRFTISRDNAKNTVYLQMNSLKPEDSAVYYCAAYRAGNSYYPRLNYWGQGTQVTVSS”, the “polyreactivity (PSR sort gate)” value is reported as “high polyreactivity”.
In the case of “QVQLVYSGGGLVQAGGSLRLSCAASGIIFGVNAMGWYRQAPGKERELVAAISSSGGSTYYADSVKGRFTISRDNAKNTVYLQMNSLKPEDTAVYYCAASYYHYAPFDYWGQGTQVTVSS”, the “polyreactivity (PSR sort gate)” value is reported as “high polyreactivity”.
With “QVQLVESGGGLVQAGGSLRLSCAASGSNFARYAMGWYRQAPGKERELVAAINSTVSTNYADSVNGRFTISRDNPKNTVYLQMNSLKPEDTAVYYCAVDIVRGGRDSWGQGTQVTVSS” the “polyreactivity (PSR sort gate)” value was “low polyreactivity”.
For “QVQLVESGGGLVQAGCSLRLSCAASGNIFYRYAKGRYRPAPGKERELVAGITWSGGSTYYADSVKGRFTISRDNAKNTVYLQMTSLKPEDTAVYYCGQANYYWGQGTQVTVSS”, the “polyreactivity (PSR sort gate)” value was “low polyreactivity”.
In the case of “QVQLVESGGGLVQAGGSLRLSCAASGFIFPDYAMGWSRQAPGKERELVAAISKRGGSTYYADSVKGRFTISRDNAKNTVYLQMNSLKPEDTAVYYCAAVTSVNPSVFNGNYWGQGTHVTVSS”, the “polyreactivity (PSR sort gate)” value is reported as “low polyreactivity”.
For “QVQLVESGGGLVQAGGSLRLSCAASGSTLGSNAMGWYRQAPGKERELVAAITWSGGTTYYADSVKGRFTISRDNAKNTVYLQMNSLKPEDTAVYYCATGQSVIYRYEYWGQGTQVSVSS”, the “polyreactivity (PSR sort gate)” value was “low polyreactivity”.
In the case of “QVQLVESGGGLVQAGGSLRLSCAASGIIFRWYVMGWYRQSPGKERELVAAITNGGRTYYADSVKGRFTISRDNAKNTVYLQMNSLKPEDTEVYYCAAYFRRKMDYWGQGTQVTVSS”, the “polyreactivity (PSR sort gate)” value is reported as “high polyreactivity”.
In the case of “QVQLVESGGGLVQAGGSLRLSSAASGRIFYPYTIGWYRQAPGKERELVAAISSTGRTNYADSVKGRFTISRDNAKNTVYLQMNSVKPEDTAVYYCAKGFRKYSLGPPGNDYWGQGTQVTVSS”, the “polyreactivity (PSR sort gate)” value is reported as “high polyreactivity”.
In the case of “QVQHVESGGGSVQAGGRLRLSCAASGSTFIEYAMGWYRKAPGKERELVAGITTSSGRTSYADSVKGRFTISRDNAKNTVYLQMNSLKPEDTAVYYCAAKSYSDYDYWGQGTQVTVSS”, the “polyreactivity (PSR sort gate)” value is reported as “low polyreactivity”.
For “QVQLVESGGGLVQAGGILRLSCAASGSTFYSYAMGWYRQAPGKERELVAYIDWSGGYTYYADSVKGRFTISRDNAKNTVYLQMNSLKPEDTAVYYCNAERGATGYYVTGDDYWGQGTQVTVSS”, the “polyreactivity (PSR sort gate)” value was “low polyreactivity”.
In the case of “QVQLVESGGGLVQAGGSLRLSCAASGYTFPKYAMGWYRQAPGKERELVAAITKRGGRTYSADSVKGRFTISRDNAKNTVYLQMNSLKPEDTAVYYCAVDLDGPEYSQVHYDYWGQGTQVTVSS”, the “polyreactivity (PSR sort gate)” value is reported as “high polyreactivity”.
In the case of “QVQLVESGGGLVQAGGSLRLSCAASGSTIIDYDMGWYRQAPGKERELVAGISWSGGRTYYADSVKGRFTISRDNAKNTVYLQMNSLKPEDTEVYYCNKVGRGARTSDYWGQGTQVTVSS”, the “polyreactivity (PSR sort gate)” value is reported as “high polyreactivity”.
For “QVKLVESGGGLVQAGGSLRLRCAASGSIFRFYVMGWYRQAPGKERELVAAISSGGSTDYADSVKGRFTISRDNAKNTVYLQMYSLKPEDTAVYYCGARVRTVRNTYYSWGQGTQVTVSS”, the “polyreactivity (PSR sort gate)” value was “high polyreactivity”.
For “QVQLVESGGGLVQAGGSLRLSCAASGRTSDGYARGWYRQAPGKERELVAGITEGGGDTYYADSVKGRFTISRDNAKNTVYLQMNSLKPEDTAVYYCNAVEGSRLPYDYWGQGTQVTVSS”, the “polyreactivity (PSR sort gate)” value was “low polyreactivity”.
In the case of “QVQLVESGGGLVQAGGSLRLSCAASGSTFRFYAMGWYRQAPGKERELVAGITGSGDSTYYADSVKGRFTISRDNAKNTVYLQMNSLKPEDTAVYYCNKRVVYRSSQFDYWGQGTQVTVSS”, the “polyreactivity (PSR sort gate)” value is reported as “low polyreactivity”.
With “QDQHVESGGGLVQAGGSLRLSCAASVITYGRYVMGWDRQAPGKERELVAAITGSGGSTYYADSVKGRFTISRDNAKNTVYLQMNSLKAEDTAVYYCAAAGGYRFDYWGQGTQVTVSS” the “polyreactivity (PSR sort gate)” value was “high polyreactivity”.
For “QVQLVESGGGLVQAGGSLRLSCAASGFTFNSYVMGWSRQAPGKERELVAAITRSGDRTYYADSVKGRFTISRDNAKNTVYLQMNSLKPEDTAVYYCAATWSKNYYGWYYYWGQGTQVTVSS”, the “polyreactivity (PSR sort gate)” value was “high polyreactivity”.
For “QVQLVESGGGLVQAGGSLRLSCAASGRISSVYAMGWYRQAPGKERELVAAINWRVGSTYYADSVKGRFTISRDNAKNTVYLQMNSLKPEDTAVYYCAVDPVYGIIGSRYDYWGQGTQVTVSS”, the “polyreactivity (PSR sort gate)” value was “low polyreactivity”.
In the case of “QVQLVESGGGLVQAGGSLRLSCAASGFIFSSYAMGWYSQAPGKERDLGAAISKSGDRTSYADSVKGRFTISRDNAKNTVYLQMNSLKPEDTAVYYCAKDRLYRTKKYRDMYYWGQGTQVTVSS”, the “polyreactivity (PSR sort gate)” value is reported as “high polyreactivity”.
In the case of “QDQLVESGGGLVQAGGSLRLSCAASGSTFLINAMGWYRQAPGKERELVAAISDSGGSTHYADSVKGRFTISRDNAKNTVYLEMNSLKPEDTAVYYCAATIPTTLILYGYWGQGTQVTVSS”, the “polyreactivity (PSR sort gate)” value is reported as “low polyreactivity”.
With “QVQLVESGGGLVQAGGSLRLSCAASGRIFYYYAMGWYRQAPGKEREFVAAIRVTSDSTYYADSVKGRFTISRDNAKNTVYLQMNSLKPEDTAVYYCAADSFYFPYDYWGQGTQVTVSS” the “polyreactivity (PSR sort gate)” value was “high polyreactivity”.
For “QVQLVESGGGLVQAGGSLRLSCASSGSTFGPYTMGWYTQAPGKERELVATISSGGSTYYADSVKGRFTISRDNAKYTVYLQMKSLKPEDTAVYYCAARYWSIYDYWGQGTQVTVSS”, the “polyreactivity (PSR sort gate)” value was “low polyreactivity”.
With “QVQLLESGGGLVQAGGSLRLSCAASGSTCGRNAMGWYRQAPGKERELVAAITSTGSTYYADSVKGRFTISRDNAKNTFYLQMNSLNPEDTAVYYCAAEARPYLFPAYKYPYYSWGQGTQVTVSS” the “polyreactivity (PSR sort gate)” value was “low polyreactivity”.
For “QVQLVESGGGLVQAGGSLRLSCAASGGTFPYYAMGWYRQAPGKERELVADISGTDGSTYYADSVKGRFTISRDNAKTTVYLQMNSLKPEDTAVYYCNADPHWWYWDYDYWGQGTQVTVSS”, the “polyreactivity (PSR sort gate)” value was “high polyreactivity”.
In the case of “QVQLVESGGGLVQAGGSLRLSCAASGFIFGRYAMGWYRQAPGKERELVAAITASGGRTYYADSVKGRFTISRDNAKNTVYLQMNSLKPEDTAVYYCNTPSLWCGEDYWGQGTQVTVSS”, the “polyreactivity (PSR sort gate)” value is reported as “high polyreactivity”.
In the case of “QVQLVESGGGLVQAGGSLRLICAASGSTIYSYAMGWYRQAPGKEREMVAANDWSGTSTYYADSVKGRFTISRDNAKNTVYLQMNSLKPVDTAVYYCNARKRRSYQGGYYYSLRNEYWGQGTQVTVSS”, the “polyreactivity (PSR sort gate)” value is reported as “high polyreactivity”.
In the case of “QVQLVDSGGGLVQAGGSLRLSCAASGRTFYSYAMGWYRQAPGKERELVSAISRNGGSTYYADSVKGRFTISRDNAKNSVYLQMNSLKPEDTAVYYCAAKRAGPYGISKGMDYWGQGTQVTVSS”, the “polyreactivity (PSR sort gate)” value is reported as “high polyreactivity”.
With “QVQLVESGGGLVQAGGSLRLSCAASGSTFQPYAMGWYRQAPGKEREFVATISGSAGSTYYADSVKGRFKISRDNAKNTVYLLMNSLKPEDTAVYYCNADSGWFGYDYWGQGTQVTVSS” the “polyreactivity (PSR sort gate)” value was “low polyreactivity”.
With “QVQLVESGGGLVQAGGSLRLSCAASGSIFFYNTMGWYRQARGKERELVATINSDDSTYYADSVKGGFTISRDNAKNTVYIQMNSLKPEDTAVYYCNVRVKGGKLVAYDYWGQGTQVTLSS” the “polyreactivity (PSR sort gate)” value was “low polyreactivity”.
In the case of “QVQLVESGRGLVQAGGSLRLSCASSGSTFRWNAMGWYRQAPGKERELVAAISQSGSSTYYADSVKGRFTISRDNAKNTVYLQMNSLKPEDTAVYYCAARTGRKYYYWGQGTQVTVSS”, the “polyreactivity (PSR sort gate)” value is reported as “low polyreactivity”.
In the case of “QVQLVESGGGLVQAGVSLRLSCAASGFIFVSYAMGWYRQAPGIERELVAAIDRIGGITYYADSVKGRFTISRDNAKNTVYLQMNSLKPVDTAVYYCAAAARYATVRVGREYYWGQGTQVTVSS”, the “polyreactivity (PSR sort gate)” value is reported as “low polyreactivity”.
In the case of “QVQLVESGGFLVQAGGSLRLSCDASGSILADTSLGWYRQAPGKERELVAAISRRGGRTYYADSVKGRFTISRDNAKNTVYLQMNSLKPEDTGGYYCAAVGSFHIGDYWGLGTQVTVSS”, the “polyreactivity (PSR sort gate)” value is reported as “high polyreactivity”.
With “QVQLVESGGGLVQAGGILRLICAASGSIFGKYTMGWYRHAPGKERELVAGITYRAGSTYYADSVKGRFTISRDNAKNTVYLQMNSLKPEDTAVYYCAARFYFRWYYYGSYANYWGQGTQVTVSS” the “polyreactivity (PSR sort gate)” value was “high polyreactivity”.
For “QVHLVESGGGLVQAGGSLSFSCAASGSNFTFNTMVWYRQAPGKEREKVATISSGGRTYYADSVKGRFTISRDNAKNTVYLQMNSLKPEDTPVFYCNKGYYGYTYVEYNYWGQGTPVTVSS”, the “polyreactivity (PSR sort gate)” value was “low polyreactivity”.
In the case of “QVQLVESGGCLVQAGGSLRLSCAASGRTFYIYAMGWYRQAPGKERELVAAINFSDGSTSYADSVKGRFTISRDNAKHTVYLQMNSLKPEDTAVYYWGQGTKVTVSS”, the “polyreactivity (PSR sort gate)” value is reported as “low polyreactivity”.
In the case of “QVQLVESGGGLVQAGGSLRLSCAASGSTFGIYVMGWYRQAPGKERELVATISSSGGRTYYADSVKGRFTISRDNAKNTVYLQMNSLKPEDTAVYYCAADGYIDISPGYYYTYDYWGQGTQVTVSS”, the “polyreactivity (PSR sort gate)” value is reported as “low polyreactivity”.
With “QVQLVESGGGIVQAGGSLRLSCAASGRIFSPNAMGWYRQAPGKERELVASISSAGSTNYADSVKGRFTISRDNAKNTVDLLMKSLIPEDTAVYYCDADQPYYGYWDWYSHEYDYWGQGTQVSVSS” the “polyreactivity (PSR sort gate)” value was “low polyreactivity”.
With “QVQLVESGVGLVQAGGSLRLSCAASGSTFNYYAMGWYRQAPGKERELVAAISSRSSRTFYADSVKGRFTISRDNAKNTVYLQMHSVKPEDTAVYYCAVKKSAPDGDYWGQGTQVTVSS” the “polyreactivity (PSR sort gate)” value was “high polyreactivity”.
In the case of “QVQLVESGGGLVQAGGSRRLSCAASGIIFAYYAMGWYRQAPGKERELVASISSTGGSTYYADSVKGRFTISRDNAKNTVYLQMNSLKPEDTAVYYCAVDGLPPKDALHLYYYWGQVTQVTVSS”, the “polyreactivity (PSR sort gate)” value is reported as “low polyreactivity”.
For “QVQLVESGGGLVQAGGSLRLSCAASGRTFWDYAMGWYRQAPGKERELVAAITGGITNYADSVKGRFTISRDNAKNTVYLQMNSLKPEDTAVYYCAVYYRRWFSRYDYWGQGTQVTVSS”, the “polyreactivity (PSR sort gate)” value was “low polyreactivity”.
With “QVHLVESGGGLVQAGGSLRLSCAASGFIFNVYAMGWYRQAPGKERELVAAISFSGTSTYYADSVKGRFTISRDNAKNTVYLQMNSLKPEDTAVYYCAARYWSRDQWPRSLYYWGQGTQVTVSS” the “polyreactivity (PSR sort gate)” value was “high polyreactivity”.
